Experimental data reported in the supplement of paper PMC5998384.

Assays:
HeLa Kyoto [1] = assay: solubility change mitosis vs G1/S (difference of NP-40 vs SDS log2 ratios) (log2 ratio difference); higher = more soluble in mitosis
HeLa Kyoto [2] = assay: solubility in G1/S (NP-40 vs SDS abundance) (log2 ratio); higher = more soluble; details: cell cycle stage: G1/S
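Throughout, for solubility change mitosis vs G1/S (difference of NP-40 vs SDS log2 ratios): synchronized HeLa Kyoto cells (double thymidine block for G1/S, nocodazole release for mitosis), protein amounts in NP-40 versus SDS lysates quantified by mass spectrometry, three biological replicates.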
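Throughout, for solubility in G1/S (NP-40 vs SDS abundance): HeLa Kyoto cells arrested at G1/S by double thymidine block, proteins quantified by TMT10plex mass spectrometry in mild NP-40 versus SDS extracts, three biological replicates.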

| Sequence | solubility change mitosis (log2) (HeLa Kyoto [1]) | solubility in G1/S (log2) (HeLa Kyoto [2]) |
| --- | --- | --- |
| MSNGYSTDENFRYLISCFRARVKMYIQVEPVLDYLTFLPAEVKEQIQRTVATSGNMQAVELLLSTLEKGVWHLGWTREFVEALRRTGSPLAARYMNPELTDLPSPSFENAHDEYLQLLNLLQPTLVDKLLVRDVLDKCMEEELLTIEDRNRIAAAENNGNESGVRELLKRIVQKENWFSAFLNVLRQTGNNELVQELTGSDCSESNAEIENLSQVDGPQVEEQLLSTTVQPNLEKEVWGMENNSSESSFADSSVVSESDTSLAEGSVSCLDESLGHNSNMGSDSGTMGSDSDEENVAARASPEPELQLRPYQMEVAQPALEGKNIIICLPTGSGKTRVAVYIAKDHLDKKKKASEPGKVIVLVNKVLLVEQLFRKEFQPFLKKWYRVIGLSGDTQLKISFPEVVKSCDIIISTAQILENSLLNLENGEDAGVQLSDFSLIIIDECHHTNKEAVYNNIMRHYLMQKLKNNRLKKENKPVIPLPQILGLTASPGVGGATKQAKAEEHILKLCANLDAFTIKTVKENLDQLKNQIQEPCKKFAIADATREDPFKEKLLEIMTRIQTYCQMSPMSDFGTQPYEQWAIQMEKKAAKEGNRKERVCAEHLRKYNEALQINDTIRMIDAYTHLETFYNEEKDKKFAVIEDDSDEGGDDEYCDGDEDEDDLKKPLKLDETDRFLMTLFFENNKMLKRLAENPEYENEKLTKLRNTIMEQYTRTEESARGIIFTKTRQSAYALSQWITENEKFAEVGVKAHHLIGAGHSSEFKPMTQNEQKEVISKFRTGKINLLIATTVAEEGLDIKECNIVIRYGLVTNEIAMVQARGRARADESTYVLVAHSGSGVIEHETVNDFREKMMYKAIHCVQNMKPEEYAHKILELQMQSIMEKKMKTKRNIAKHYKNNPSLITFLCKNCSVLACSGEDIHVIEKMHHVNMTPEFKELYIVRENKALQKKCADYQINGEIICKCGQAWGTMMVHKGLDLPCLKIRNFVVVFKNNSTKKQYKKWVELPITFPNLDYSECCLFSDED [IFIH1] | -0.0235 | -0.109 |
| MSNNLRRVFLKPAEENSGNASRCVSGCMYQVVQTIGSDGKNLLQLLPIPKSSGNLIPLVQSSVMSDALKGNTGKPVQVTFQTQISSSSTSASVQLPIFQPASSSNYFLTRTVDTSEKGRVTSVGTGNFSSSVSKVQSHGVKIDGLTMQTFAVPPSTQKDSSFIVVNTQSLPVTVKSPVLPSGHHLQIPAHAEVKSVPASSLPPSVQQKILATATTSTSGMVEASQMPTVIYVSPVNTVKNVVTKNFQNIYPKPVTEIAKPVILNTTQIPKNVATETQLKGGQHSQAAPVKWIFQDNLQPFTPSLVPVKSSNNVASKILKTFVDRKNLGDNTINMPPLSTIDPSGTRSKNMPIKDNALVMFNGKVYLLAKKGTDVLPSQIDQQNSVSPDTPVRKDTLQTVSSSPVTEISREVVNIVLAKSKSSQMETKSLSNTQLASMANLRAEKNKVEKPSPSTTNPHMNQSSNYLKQSKTLFTNPIFPVGFSTGHNAPRKVTAVIYARKGSVLQSIEKISSSVDATTVTSQQCVFRDQEPKIHNEMASTSDKGAQGRNDKKDSQGRSNKALHLKSDAEFKKIFGLTKDLRVCLTRIPDHLTSGEGFDSFSSLVKSGTYKETEFMVKEGERKQQNFDKKRKAKTNKKMDHIKKRKTENAYNAIINGEANVTGSQLLSSILPTSDVSQHNILTSHSKTRQEKRTEMEYYTHEKQEKGTLNSNAAYEQSHFFNKNYTEDIFPVTPPELEETIRDEKIRRLKQVLREKEAALEEMRKKMHQK [LRIF1] | 0.89 | -0.92 |
| MSRLEAKKPSLCKSEPLTTERVRTTLSVLKRIVTSCYGPSGRLKQLHNGFGGYVCTTSQSSALLSHLLVTHPILKILTASIQNHVSSFSDCGLFTAILCCNLIENVQRLGLTPTTVIRLNKHLLSLCISYLKSETCGCRIPVDFSSTQILLCLVRSILTSKPACMLTRKETEHVSALILRAFLLTIPENAEGHIILGKSLIVPLKGQRVIDSTVLPGILIEMSEVQLMRLLPIKKSTALKVALFCTTLSGDTSDTGEGTVVVSYGVSLENAVLDQLLNLGRQLISDHVDLVLCQKVIHPSLKQFLNMHRIIAIDRIGVTLMEPLTKMTGTQPIGSLGSICPNSYGSVKDVCTAKFGSKHFFHLIPNEATICSLLLCNRNDTAWDELKLTCQTALHVLQLTLKEPWALLGGGCTETHLAAYIRHKTHNDPESILKDDECTQTELQLIAEAFCSALESVVGSLEHDGGEILTDMKYGHLWSVQADSPCVANWPDLLSQCGCGLYNSQEELNWSFLRSTRRPFVPQSCLPHEAVGSASNLTLDCLTAKLSGLQVAVETANLILDLSYVIEDKN [MKKS] | 0.46 | -0.925 |
| MSRSGAAAEKADSRQRPQMKVNEYKENQNIAYVSLRPAQTTVLIKTAKVYLAPFSLSNYQLDQLMCPKSLSEKNSNNEVACKKTKIKKTCRRIIPPKMKNTSSKAESTLQNSSSAVHTESNKLQPKRTADAMNLSVDVESSQDGDSDEDTTPSLDFSGLSPYERKRLKNISENADFFASLQLSESAARLREMIEKRQPPKSKRKKPKRENGIGCRRSMRLLKVDPSGVSLPAAPTPPTLVADETPLLPPGPLEMTSENQEDNNERFKGFLHTWAGMSKPSSKNTEKGLSSIKSYKANLNGMVISEDTVYKVTTGPIFSMALHPSETRTLVAVGAKFGQVGLCDLTQQPKEDGVYVFHPHSQPVSCLYFSPANPAHILSLSYDGTLRCGDFSRAIFEEVYRNERSSFSSFDFLAEDASTLIVGHWDGNMSLVDRRTPGTSYEKLTSSSMGKIRTVHVHPVHRQYFITAGLRDTHIYDARRLNSRRSQPLISLTEHTKSIASAYFSPLTGNRVVTTCADCNLRIFDSSCISSKIPLLTTIRHNTFTGRWLTRFQAMWDPKQEDCVIVGSMAHPRRVEIFHETGKRVHSFGGEYLVSVCSINAMHPTRYILAGGNSSGKIHVFMNEKSC [WDR76] | 1.15 | -1.61 |
| MSSKMVISEPGLNWDISPKNGLKTFFSRENYKDHSMAPSLKELRVLSNRRIGENLNASASSVENEPAVSSATQAKEKVKTTIGMVLLPKPRVPYPRFSRFSQREQRSYVDLLVKYAKIPANSKAVGINKNDYLQYLDMKKHVNEEVTEFLKFLQNSAKKCAQDYNMLSDDARLFTEKILRACIEQVKKYSEFYTLHEVTSLMGFFPFRVEMGLKLEKTLLALGSVKYVKTVFPSMPIKLQLSKDDIATIETSEQTAEAMHYDISKDPNAEKLVSRYHPQIALTSQSLFTLLNNHGPTYKEQWEIPVCIQVIPVAGSKPVKVIYINSPLPQKKMTMRERNQIFHEVPLKFMMSKNTSVPVSAVFMDKPEEFISEMDMSCEVNECRKIESLENLYLDFDDDVTELETFGVTTTKVSKSPSPASTSTVPNMTDAPTAPKAGTTTVAPSAPDISANSRSLSQILMEQLQKEKQLVTGMDGGPEECKNKDDQGFESCEKVSNSDKPLIQDSDLKTSDALQLENSQEIETSNKNDMTIDILHADGERPNVLENLDNSKEKTVGSEAAKTEDTVLCSSDTDEECLIIDTECKNNSDGKTAVVGSNLSSRPASPNSSSGQASVGNQTNTACSPEESCVLKKPIKRVYKKFDPVGEILKMQDELLKPISRKVPELPLMNLENSKQPSVSEQLSGPSDSSSWPKSGWPSAFQKPKGRLPYELQDYVEDTSEYLAPQEGNFVYKLFSLQDLLLLVRCSVQRIETRPRSKKRKKIRRQFPVYVLPKVEYQACYGVEALTESELCRLWTESLLHSNSSFYVGHIDAFTSKLFLLEEITSEELKEKLSALKISNLFNILQHILKKLSSLQEGSYLLSHAAEDSSLLIYKASDGKVTRTAYNLYKTHCGLPGVPSSLSVPWVPLDPSLLLPYHIHHGRIPCTFPPKSLDTTTQQKIGGTRMPTRSHRNPVSMETKSSCLPAQQVETEGVAPHKRKIT [ICE2] | 0.281 | -0.234 |
| MSSLPRRAKVQVQDVVLKDEFSSFSELSSASEEDDKEDSAWEPQKKVPRSRKQPPPKESKPKRMPRVKKNAPQISDGSEVVVVKEELNSSVAIADTALEDRKNKLDTVQTLKTAKTKQKCAAQPHTVRRTKKLKVEEETSKASNLEGESNSSETPSTSTVWGGTCKKEENDDDFTFGQSALKKIKTETYPQGQPVKFPANANSTKEEVEMNWDMVQVLSERTNIEPWVCANIIRLFNDDNTIPFIIRYRKELINNLDADSLREVQQTLEELRAVAKKVHSTIQKIKKEGKMSECLLKAMLNCKTFEELEHVSAPYKTGSKGTKAQRARQLGLEGAARALLEKPGELSLLSYIRPDVKGLSTLQDIEIGVQHILADMIAKDKDTLDFIRNLCQKRHVCIQSSLAKVSSKKVNEKDVDKFLLYQHFSCNIRNIHHHQILAINRGENLKVLTVKVNISDGVKDEFCRWCIQNRWRPRSFARPELMKILYNSLNDSFKRLIYPLLCREFRAKLTSDAEKESVMMFGRNLRQLLLTSPVPGRTLMGVDPGYKHGCKLAIISPTSQILHTDVVYLHCGQGFREAEKIKTLLLNFNCSTVVIGNGTACRETEAYFADLIMKNYFAPLDVVYCIVSEAGASIYSVSPEANKEMPGLDPNLRSAVSIARRVQDPLAELVKIEPKHIGVGMYQHDVSQTLLKATLDSVVEECVSFVGVDINICSEVLLRHIAGLNANRAKNIIEWREKNGPFINREQLKKVKGLGPKSFQQCAGFIRINQDYIRTFCSQQTETSGQIQGVAVTSSADVEVTNEKQGKKKSKTAVNVLLKPNPLDQTCIHPESYDIAMRFLSSIGGTLYEVGKPEMQQKINSFLEKEGMEKIAERLQTTVHTLQVIIDGLSQPESFDFRTDFDKPDFKRSIVCLEDLQIGTVLTGKVENATLFGIFVDIGVGKSGLIPIRNVTEAKLSKTKKRRSLGLGPGERVEVQVLNIDIPRSRITLDLIRVL [SRBD1] | 0.249 | -0.649 |
| MSTEADEGITFSVPPFAPSGFCTIPEGGICRRGGAAAVGEGEEHQLPPPPPGSFWNVESAAAPGIGCPAATSSSSATRGRGSSVGGGSRRTTVAYVINEASQGQLVVAESEALQSLREACETVGATLETLHFGKLDFGETTVLDRFYNADIAVVEMSDAFRQPSLFYHLGVRESFSMANNIILYCDTNSDSLQSLKEIICQKNTMCTGNYTFVPYMITPHNKVYCCDSSFMKGLTELMQPNFELLLGPICLPLVDRFIQLLKVAQASSSQYFRESILNDIRKARNLYTGKELAAELARIRQRVDNIEVLTADIVINLLLSYRDIQDYDSIVKLVETLEKLPTFDLASHHHVKFHYAFALNRRNLPGDRAKALDIMIPMVQSEGQVASDMYCLVGRIYKDMFLDSNFTDTESRDHGASWFKKAFESEPTLQSGINYAVLLLAAGHQFESSFELRKVGVKLSSLLGKKGNLEKLQSYWEVGFFLGASVLANDHMRVIQASEKLFKLKTPAWYLKSIVETILIYKHFVKLTTEQPVAKQELVDFWMDFLVEATKTDVTVVRFPVLILEPTKIYQPSYLSINNEVEEKTISIWHVLPDDKKGIHEWNFSASSVRGVSISKFEERCCFLYVLHNSDDFQIYFCTELHCKKFFEMVNTITEEKGRSTEEGDCESDLLEYDYEYDENGDRVVLGKGTYGIVYAGRDLSNQVRIAIKEIPERDSRYSQPLHEEIALHKHLKHKNIVQYLGSFSENGFIKIFMEQVPGGSLSALLRSKWGPLKDNEQTIGFYTKQILEGLKYLHDNQIVHRDIKGDNVLINTYSGVLKISDFGTSKRLAGINPCTETFTGTLQYMAPEIIDKGPRGYGKAADIWSLGCTIIEMATGKPPFYELGEPQAAMFKVGMFKVHPEIPESMSAEAKAFILKCFEPDPDKRACANDLLVDEFLKVSSKKKKTQPKLSALSAGSNEYLRSISLPVPVLVEDTSSSSEYGSVSPDTELKVDPFSFKTRAKSCGERDVKGIRTLFLGIPDENFEDHSAPPSPEEKDSGFFMLRKDSERRATLHRILTEDQDKIVRNLMESLAQGAEEPKLKWEHITTLIASLREFVRSTDRKIIATTLSKLKLELDFDSHGISQVQVVLFGFQDAVNKVLRNHNIKPHWMFALDSIIRKAVQTAITILVPELRPHFSLASESDTADQEDLDVEDDHEEQPSNQTVRRPQAVIEDAVATSGVSTLSSTVSHDSQSAHRSLNVQLGRMKIETNRLLEELVRKEKELQALLHRAIEEKDQEIKHLKLKSQPIEIPELPVFHLNSSGTNTEDSELTDWLRVNGADEDTISRFLAEDYTLLDVLYYVTRDDLKCLRLRGGMLCTLWKAIIDFRNKQT [MAP3K5] | 0.654 | -1.04 |
